Target: T1, IGFBP-3 (Homo sapiens, UniProt P17936)
T1 construct: purchased GroPep
Experiment: VN-peptide array: binding of IGFBP-3 to immobilized overlapping 16-mer VN peptides
Details: spot stronger than negative controls = positive hit
Source text: The inventors designed small-molecule VN-peptides that could potentially disrupt the formation of the IGF-I:IGFBP:VN trimeric or the IGF-II:VN dimeric complexes by binding to the IGFBPs and/or IGF-II and preventing their association with VN within the complex. To design peptides, the binding sites of IGFBP-3/-5 and IGF-II on VN were first determined using VN-peptide arrays. The entire VN protein sequence, excluding the signal peptide (residues 1-19), was divided into overlapping 16-mer peptides with 3AA frameshift/offset (for peptide sequences refer to Table 6) and immobilized onto cellulose membranes (peptide spotting was outsourced to PepMetric Technologies Inc). For a schematic of the arrangement of VN peptides and controls refer to FIG. 2. The resultant peptide arrays were incubated either with IGFBP-3, IGFBP-5 or IGF-II ligands, probed with the respective antibodies, the membranes developed using ECL, and imaged using the ChemiDoc™ XRS system (BioRad). The spots on the membrane were analysed using TotalLab array quantification software (TotalLab Ltd, Newcastle, England) identifying positive peptide spots by comparing each spot to the combined intensities of the negative controls.
The entire VN protein sequence, excluding the signal peptide (residues 1-19), was divided into overlapping 16-mer peptides with 3 amino acid (AA) frameshift/offset. This yielded 148 overlapping peptides covering the entire VN sequence (residues 20-478) (Table 6) with a resolution of 3 AA. Peptide synthesis and spotting onto a cellulose membrane were outsourced to PepMetric Technologies Inc. (Richmond, BC, Canada). For a diagrammatic illustration of the strategy used to divide an example amino acid sequence into peptides and to spot them onto the membrane, please refer to http://www.pepmetric.com/html/Pep-Overlap.html. The VN-overlapping peptides were generated using FMOC (9-fluorenylmethoxycarbonyl) Solid-Phase SPOT synthesis onto PEG-grafted amine-functionalized cellulose membrane (Whatman® 540 filter paper). The peptides were spotted onto the cellulose membrane in a 10×16 grid with each peptide being 10˜50 nM in concentration with >70% purity. Finally, these membranes were acetylated in order to cap the free ends of the spotted peptides preventing them from degradation during shipping and storage.
Along with the VN-peptides these membranes were also spotted with a positive control (i.e., universal binding peptides tested by the manufacturer to be positive for antibodies from goat, mouse, rat and chicken) and a negative control (ie. non-binding peptides as well as BSA) controls. For a schematic of the arrangement of VN-peptides and controls refer to FIG. 2 and for the sequence of each peptide corresponding to the grid number refer to Table 6. Four such replicate membranes were prepared and stored at room temperature in a clip sealed plastic bag. Long-term storage was at −20° C.
Methanol or ethanol was used to enhance the rehydration of peptide spots that might be hydrophobic. The peptides spotted onto the membranes were activated by incubating in 3 mL of 70% ethanol for five mins. The membranes were subsequently washed three times, 10 minutes each, in 10 mL TBS (Tris Buffered Saline; 8 g NaCl, 0.2 g KCl and 6.1 g Tris Base into 1000 mL of milliQ water, pH 7) with gentle rocking. Membrane blocking was performed by incubating in 10 mL casein-based membrane blocking buffer (MBS; Sigma-Aldrich) overnight at 4° C. The following day, the membranes were washed twice, 10 minutes each, in 10 mL TBS-T (TBS+0.05% Tween-20; pH 7).
Ligands used to test binding to VN-peptides were IGFBP-3, IGFBP-5 and IGF-II. For ligand binding, four separate solutions of 1 μg/mL ligand in 10 mL MBS buffer were prepared and each membrane was incubated in one of the four ligand solutions overnight at 4° C., with gentle rocking. […] The following day, the membranes were washed three times, 10 minutes each, in 10 mL TBS-T. […]

T1 sequence (P17936 28-291): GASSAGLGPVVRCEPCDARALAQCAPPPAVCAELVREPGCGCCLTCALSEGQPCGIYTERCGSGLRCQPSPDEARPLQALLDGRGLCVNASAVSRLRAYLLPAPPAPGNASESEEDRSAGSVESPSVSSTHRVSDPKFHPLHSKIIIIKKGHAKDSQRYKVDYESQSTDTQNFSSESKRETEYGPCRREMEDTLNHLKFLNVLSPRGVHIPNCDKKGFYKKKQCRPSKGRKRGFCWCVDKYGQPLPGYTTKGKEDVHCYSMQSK

Binding of IGFBP-3 on VN-peptide array (positive spot or not)	Sequence
did not show any binding	KTYLFKGSQYWRFEDG [Neg, reference compound]
does not bind	LFSSEESNLGANNYDDYRMDWL (listed as Homo sapiens) [Peptide P7, human VN motif 7 mimic]

From US10106582B2, “Complex-formation-modulating agents and uses therefor” (Factor Therapeutics Limited, priority 2012, dated 2018)
